Results on 2 molecules are retold here after PMC4414810 (ACS chemical biology, 2015).

Where no end group is shown, it is not given here.

The target of assay [1] is T1, HalM2 (haloduracin lanthipeptide synthetase) (Bacillus halodurans C-125). The assay can be described thus: fluorescence polarisation. In general terms: Polarisation of emitted light reports the rotation of a fluorescent probe.
For assay [2], the target named is T1, HalM2 (haloduracin lanthipeptide …). Description: fluorescence polarisation. This is another data set of the same source.

B1: HalA1 leader peptide (peptide)
chain: MTNLLKEWKMPLERTHNNSNPAGDIFQELEDQDILAGIEGR
In assay [1], B1 returned an IC50 of 4.1 ± 1.1 µM and an inhibitory constant (Ki) of 4.1 ± 1.1 µM.

B2: fluorescein-labeled HalA2 leader peptide (peptide)
chain: MVNSKDLRNPEFRKAQGLQFVDEVNEKELSSLAGSGDIEGR
modifications: also: 5-FAM on short synthetic peptide ligated to introduced N-terminal Cys
Consider B2, for which, in assay [2], the Kd is 3.7 ± 1.3 µM.

In general, IC50 refers to the midpoint of a concentration-inhibition curve. For orientation: Ki means the dissociation constant of the complex between target and ligand, obtained from inhibition or displacement. Read a low Ki as tighter binding. A word on the Kd: it is the free concentration of one partner at which half of the binding sites on the other are occupied at equilibrium, for simple one-to-one binding. Low readings indicate higher affinity, high ones lower affinity.
